± gives the standard deviation of the averaged measurements.
What follows are sequences tested on Saccharomyces cerevisiae (assay: protein stability index of tFT-peptide fusion (C-terminal peptide) (PSI (0-1 scale)); higher = more stable (slower turnover)). Conditions: genetic background: cdc53-1; temperature: 37 C.
Method: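 MPS profiling in S. cerevisiae of the tFT-X12 degron library: putative degron peptides plus stable controls, 12 aa, fused to the C-terminus of a sfGFP-mCherry timer. Cells are FACS-sorted into 8 mCherry/sfGFP bins and deep-sequenced. PSI runs from 0 (unstable) to 1 (stable). Backgrounds are wild type, das1Δ and doa10Δ at 30 °C, and wild type, das1Δ, cdc34-1 and cdc53-1 at 37 °C; 2-3 technical replicates each.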
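Note: PSI is a weighted mean of sequencing reads over stability bins, variants kept only with over 10 reads, mCherry proximal and sfGFP distal, peptide attached via GGGS linker.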

Sequence | protein stability index
FFFFFIHFLCYF | 0.208 ± 0.0039
FFFFFLLFFLRV | 0.247 ± 0.007
FFFFLVPVHCVI | 0.371 ± 0.028
FFFFSVHLSFLD | 0.295 ± 0.018
FFFLILFPLSYS | 0.526 ± 0.044
FFFLVRLCRLCV | 0.558 ± 0.02
FFIMFFDFWGYF | 0.462 ± 0.021
FFLRFGLFLFTL | 0.5109 ± 0.004
FFSCFFFSVLYR | 0.214 ± 0.018
FFVYRFFSLSVC | 0.209 ± 0.0047
FGCCLYFCFWGL | 0.519 ± 0.011
FHLVIYWCVRGP | 0.453 ± 0.088
FICYDRILTVYY | 0.564 ± 0.045
FIVVSFCFFLFF | 0.382 ± 0.0069
FKFGVFDFRFLC | 0.686 ± 0.031
FLFFLFVVFVFV | 0.35 ± 0.046
FLFFRFLVGCCF | 0.396 ± 0.0095
FLIFFVCLFRWK | 0.243 ± 0.0062
FLLLDFMLVSLV | 0.5175 ± 0.0029
FLLLVVYVSLYS | 0.207 ± 0.039
FLLSFFGLVFFW | 0.437 ± 0.0046
FLPLFFLPCLSV | 0.372 ± 0.031
FLSPPPFLALLP | 0.758 ± 0.022
FLSRHFLFLSFV | 0.489 ± 0.047
FPFHSRPCLPVL | 0.576 ± 0.11
FPTLVRKFINAI | 0.629 ± 0.052

Sequence | protein stability index
FRRSFPFPLFLR | 0.0555 ± 0.0048
FSCRRISFFLLV | 0.676 ± 0.039
FSPLVCLLFFLF | 0.565 ± 0.018
FSRFPFVKLSLV | 0.731 ± 0.019
FSSWPFFSFYLS | 0.689 ± 0.021
FSVRLCLFVWGC | 0.481 ± 0.033
FSYFFIFFYMVC | 0.257 ± 0.042
FVGVVCILWLVG | 0.33 ± 0.0064
FVLFSIFHFFLW | 0.438 ± 0.039
FVLSLGQLVFIF | 0.5818 ± 0.0051
FVSAFVCLLCLV | 0.6283 ± 0.006
FVSFTVSFSVVV | 0.38 ± 0.031
FVVIFRFSRFSA | 0.477 ± 0.012
FWYIRIRLAVVA | 0.175 ± 0.029
FYIWFFRLIYFF | 0.4414 ± 0.0014
FYTYILTVAEAL | 0.583 ± 0.04
GALVVSWAEVLC | 0.525 ± 0.01
GCLSFVAAVHLH | 0.6949 ± 0.0026
GCRLRHRLVRIV | 0.646 ± 0.052
GESCGGSERRVG | 0.7319 ± 0.0058
GFGRDHGNDTGP | 0.7331 ± 0.0021
GFRVPVVVGVRG | 0.475 ± 0.03
GFSSRWLMQYMV | 0.737 ± 0.0088
GGGGGGGGGGVG | 0.427 ± 0.044
GGGVGVAVVLFW | 0.501 ± 0.012
GGGVWWGVLVLG | 0.451 ± 0.064

Sequence | protein stability index
GGGWAVLLWVQV | 0.457 ± 0.043
GGVVGGVGVYDG | 0.7445 ± 0.0015
GGWGVFGVWVWM | 0.557 ± 0.0062
GGYVTVTSVTVV | 0.62 ± 0.02
GHYQGVCHRRIC | 0.725 ± 0.019
GIISMYVARRLG | 0.689 ± 0.0079
GKVGGRMWVWRV | 0.73 ± 0.015
GLGVIFFLLGYG | 0.507 ± 0.023
GLLFWSGVVSWV | 0.388 ± 0.058
GLLVFRCINLRC | 0.47 ± 0.0085
GLPGYAWGRSGG | 0.788 ± 0.02
GLSLVCWIVVLG | 0.202 ± 0.066
GLVVMFVIAGGG | 0.459 ± 0.008
GMGRVLVEVLLC | 0.451 ± 0.036
GMLIYVIGGLSH | 0.652 ± 0.04
GMMLLRFIIRWY | 0.15 ± 0.027
GPFVRSALIFIF | 0.582 ± 0.045
GRAVGLANFTIK | 0.756 ± 0.033
GRCGGPRSLGVG | 0.589 ± 0.022
GSGCLFNRWRIL | 0.7303 ± 0.0059
GSLLWSGWSTCY | 0.811 ± 0.011
GSWGGGWRYVGW | 0.792 ± 0.016
GTSDLIALLMLT | 0.7275 ± 0.0021
GTWCLAMARFCA | 0.755 ± 0.016
GVFVVVGEASVH | 0.5995 ± 0.0049
GVFVWVVFVCTM | 0.315 ± 0.029

Same assay, conditions: genetic background: das1 deletion; temperature: 30 C

Sequence | protein stability index
FFFFFIHFLCYF | 0.249 ± 0.034
FFFFFLLFFLRV | 0.303 ± 0.046
FFFFLVPVHCVI | 0.261 ± 0.035
FFFFSVHLSFLD | 0.178 ± 0.04
FFFLILFPLSYS | 0.376 ± 0.028
FFFLVRLCRLCV | 0.46 ± 0.019
FFIMFFDFWGYF | 0.335 ± 0.023
FFLRFGLFLFTL | 0.429 ± 0.017
FFSCFFFSVLYR | 0.302 ± 0.042
FFVYRFFSLSVC | 0.13 ± 0.032
FGCCLYFCFWGL | 0.386 ± 0.026
FHLVIYWCVRGP | 0.299 ± 0.035
FICYDRILTVYY | 0.394 ± 0.029
FIVVSFCFFLFF | 0.301 ± 0.023
FKFGVFDFRFLC | 0.623 ± 0.011
FLFFLFVVFVFV | 0.305 ± 0.022
FLFFRFLVGCCF | 0.339 ± 0.032
FLIFFVCLFRWK | 0.231 ± 0.023
FLLLDFMLVSLV | 0.404 ± 0.022
FLLLVVYVSLYS | 0.183 ± 0.033
FLLSFFGLVFFW | 0.37 ± 0.018
FLPLFFLPCLSV | 0.318 ± 0.011
FLSPPPFLALLP | 0.675 ± 0.015
FLSRHFLFLSFV | 0.505 ± 0.019
FPFHSRPCLPVL | 0.475 ± 0.025
FPTLVRKFINAI | 0.56 ± 0.016

Sequence | protein stability index
FRRSFPFPLFLR | 0.196 ± 0.031
FSCRRISFFLLV | 0.536 ± 0.043
FSPLVCLLFFLF | 0.424 ± 0.017
FSRFPFVKLSLV | 0.6201 ± 0.0056
FSSWPFFSFYLS | 0.617 ± 0.036
FSVRLCLFVWGC | 0.341 ± 0.028
FSYFFIFFYMVC | 0.234 ± 0.043
FVGVVCILWLVG | 0.252 ± 0.022
FVLFSIFHFFLW | 0.362 ± 0.051
FVLSLGQLVFIF | 0.421 ± 0.028
FVSAFVCLLCLV | 0.509 ± 0.0073
FVSFTVSFSVVV | 0.334 ± 0.025
FVVIFRFSRFSA | 0.336 ± 0.025
FWYIRIRLAVVA | 0.0867 ± 0.013
FYIWFFRLIYFF | 0.402 ± 0.039
FYTYILTVAEAL | 0.457 ± 0.021
GALVVSWAEVLC | 0.402 ± 0.024
GCLSFVAAVHLH | 0.598 ± 0.043
GCRLRHRLVRIV | 0.604 ± 0.035
GESCGGSERRVG | 0.637 ± 0.009
GFGRDHGNDTGP | 0.6497 ± 0.0025
GFRVPVVVGVRG | 0.334 ± 0.041
GFSSRWLMQYMV | 0.665 ± 0.021
GGGGGGGGGGVG | 0.397 ± 0.014
GGGVGVAVVLFW | 0.34 ± 0.027
GGGVWWGVLVLG | 0.31 ± 0.037

Sequence | protein stability index
GGGWAVLLWVQV | 0.339 ± 0.029
GGVVGGVGVYDG | 0.635 ± 0.016
GGWGVFGVWVWM | 0.429 ± 0.027
GGYVTVTSVTVV | 0.501 ± 0.025
GHYQGVCHRRIC | 0.64 ± 0.028
GIISMYVARRLG | 0.661 ± 0.015
GKVGGRMWVWRV | 0.63 ± 0.013
GLGVIFFLLGYG | 0.336 ± 0.033
GLLFWSGVVSWV | 0.243 ± 0.038
GLLVFRCINLRC | 0.429 ± 0.045
GLPGYAWGRSGG | 0.743 ± 0.037
GLSLVCWIVVLG | 0.189 ± 0.037
GLVVMFVIAGGG | 0.284 ± 0.05
GMGRVLVEVLLC | 0.317 ± 0.033
GMLIYVIGGLSH | 0.435 ± 0.027
GMMLLRFIIRWY | 0.141 ± 0.04
GPFVRSALIFIF | 0.467 ± 0.021
GRAVGLANFTIK | 0.641 ± 0.026
GRCGGPRSLGVG | 0.52 ± 0.022
GSGCLFNRWRIL | 0.6487 ± 0.0063
GSLLWSGWSTCY | 0.698 ± 0.058
GSWGGGWRYVGW | 0.663 ± 0.012
GTSDLIALLMLT | 0.607 ± 0.011
GTWCLAMARFCA | 0.662 ± 0.026
GVFVVVGEASVH | 0.402 ± 0.023
GVFVWVVFVCTM | 0.198 ± 0.017
